Fold signal over L. fermentum BR11 parent cells and A450nm signal per OD600 nm unit of cells (A450nm per OD600 nm unit of cells) data for one substance are collected here from patent publication US20070276124A1.

Test [1] addresses His6-Sep fusion protein from construct BspA-6xHis-Sep (Lactobacillus fermentum BR11). As to the kind of experiment: whole cell ELISA for the His6 epitope on L. fermentum cells with BspA-6xHis-Sep against parent BR11 cells.
Test [2] has the same target. As to the kind of experiment: whole cell ELISA for the His6 epitope on L. fermentum cells with BspA-6xHis-Sep; parent BR11 cells gave 0.0168±0.0007.

For the substance “anti-His5 monoclonal antibody (Qiagen, Hilden, Germany)”, in test [1], the fold signal over L. fermentum BR11 parent cells was determined as 1.8 fold. The A450nm signal per OD600 nm unit of cells (A450nm per OD600 nm unit of cells) in test [2] was determined as 0.0302.
